From article PMC10375638

Target: T1, …3 (SEP3) fused to mVenus, expressed in N. benthamiana (Arabidopsis thaliana), O22456
T1 chain: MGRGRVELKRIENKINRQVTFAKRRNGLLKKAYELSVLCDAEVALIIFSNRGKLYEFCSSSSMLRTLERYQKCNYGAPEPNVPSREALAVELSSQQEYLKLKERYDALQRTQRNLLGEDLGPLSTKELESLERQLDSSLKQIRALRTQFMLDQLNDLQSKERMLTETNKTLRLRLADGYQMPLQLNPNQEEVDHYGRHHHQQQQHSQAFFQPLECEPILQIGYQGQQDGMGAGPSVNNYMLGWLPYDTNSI
Assay: FRET or BRET; FLIM-FRET with one pattern analysis (OPA) in nuclei of transiently expressing N. benthamiana leaf epidermis cells; donor mVenus fusion, acceptor mCherry fusion; BINDING = relative amplitude of the FRET fraction; nucleoli excluded; FRET efficiency only for nuclei with BINDING above 10%
Details: remark: other sources report otherwise

B1: …3 (SEP3) fused to mVenus, expressed in N. benthamiana, O22456 1-251 (natural protein)
chain: T1 chain
In the case of B1, the BINDING is reported as 28.1% and the FRET efficiency is reported as 38.5%.
